Assays:
[1] = target: T1, human α-synuclein protofibril (human, UniProt P37840 1-140); assay: inhibition ELISA
[2] = target: T1, human α-synuclein protofibril; assay: SPR, Biacore 8K; ratio of KD values
Text: (§1) Due to feasibility issues caused by the complexity of the target antigen in combination with pronounced avidity dependence of the antibodies, different assay set-ups were used to assess α-synuclein protofibril and monomer binding, respectively.

[3] = target: T1, human α-synuclein protofibril; assay: inhibition ELISA; protofibril concentration as monomer equivalents
[4] = target: T1, human α-synuclein protofibril; assay: SPR, Biacore 8K; PF coated on chip, antibody injected, single cycle kinetics
Text: as §1

Aβ-protofibril = target: T2, Aβ-protofibril (UniProt P05067 672-713); assay: inhibition ELISA; concentration of Aβ-protofibril varied against BAN0805 (hu47-IgG4)
T2 construct: also called Aβ-protofibrils

β-synuclein monomer = β-synuclein monomer (UniProt Q16143 1-134); assay: inhibition ELISA; concentration of β-synuclein monomer varied against BAN0805 (hu47-IgG4)
γ-synuclein monomer = γ-synuclein monomer (UniProt O76070 1-127); assay: inhibition ELISA; concentration of γ-synuclein monomer varied against BAN0805 (hu47-IgG4)
α-synuclein monomer = α-synuclein monomer (human, UniProt P37840 1-140); assay: SPR, Biacore 8K; antibody captured by anti-human antibody, monomer injected, single cycle kinetics
Text: as §1

β-synuclein monomer, sequence (Q16143 whole entry): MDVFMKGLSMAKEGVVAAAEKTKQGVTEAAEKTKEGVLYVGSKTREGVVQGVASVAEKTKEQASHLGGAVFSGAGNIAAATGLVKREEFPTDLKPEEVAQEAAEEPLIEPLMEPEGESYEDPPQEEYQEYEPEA
γ-synuclein monomer, sequence (O76070 whole entry): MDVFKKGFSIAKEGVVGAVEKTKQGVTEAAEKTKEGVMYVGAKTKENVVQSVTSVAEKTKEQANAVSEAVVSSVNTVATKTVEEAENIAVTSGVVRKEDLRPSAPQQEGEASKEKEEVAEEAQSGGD

selectivity for α-synuclein protofibril versus monomer (IC50 monomer / IC50 PF) [1]: 910 fold
selectivity PF vs. monomeric α-synuclein (fold) [2]: 110000 fold
IC50 [3]: 2.2 nM
Kd [4]: 0.0185 nM
binding result (Aβ-protofibril): no binding
Kd (α-synuclein monomer): 2190 nM
B1: BAN0805 (antibody, human IgG4 S228P, kappa, V domains shown)
VH: QVQLQESGPGLVKPSETLSLTCTVSGFSLTSYGVHWIRQPPGKGLEWIGVIWRGGSTDYSAAFMSRLTISKDTSKNQVSLKLSSVTAADTAVYYCAKLLRSVGGFADWGQGTMVTVSS
VL: DIVMTQSPLSLPVTPGEPASISCRSSQTIVHNNGNTYLEWYLQKPGQSPQLLIYKVSNRFSGVPDRFSGSGSGTDFTLKISRVEAEDVGVYYCFQGSHVPFTFGQGTKLEIKR
notes: Humanized variant of mAb47, human IgG4 (pXC-IgG4Pro(deltaK)) / kappa; also called hu47-IgG4
binding result (β-synuclein monomer): no binding (tested: last point just above the 10000 nM tick)
binding result (γ-synuclein monomer): no binding (tested: last point just above the 10000 nM tick)

From patent US20210403542A1 (BIOARCTIC, published 2021)
